Assay results as given in the NTF2 design screens of Basanta et al. (2020).

assay: protease stability score; higher = more stable; yeast display proteolysis, trypsin and chymotrypsin;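 further: relative to predicted unfolded state with 0 unfolded-like and 1 meaning tenfold more protease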

Sequence	protease stability score
DKKQVHDVARTLVQYYVSGNSERVKQLGKEDVELHAGDRTYHGVDQMAKVVEQFKKYGVELEVKDVKVDGNRVTARVQFHKAGTTWEFKVDVQADGGKVDQVRVNVTEEAIKHIQHG	0.715
SEDERLAREVIEILHNIMHTGDEHLLDEMLDPNAKVHFDGKDFHGMDVWIKFLIEIRVDSIHVRRVHSINGVLHVDSELDGTINGKKDIRRTRIIMEKVDGRWRVTEVRYV	1.41
DEEEESTKRVAKVLHHTNRTGDEKTMNEMLDPNAKQDYNGRINIGWERILEVLREWKDRLGLTRIELHIHDFDIQGDKARIDTTVDFNGVEFKLIIYVRKIDGKWVLERIEVR	0.368
DEHHKHVKEMLDLWRRNMETGDWDEIHKLADPHVRMIIFVGDKEIHSHGREEVHRVLEEWIRRMGVDHLVLHDVTLQGNKIIIDTQRNFDGRYLDTSEIIIVVNGRIKEVTFEEK	0.341
DEWLEIAHRFVEELVRSLLTGDEDTLTKLIDPNVRLNINGQEVVGMTEVNRAWHELRIEDEHIRRIDVQGDYVRIHSQRRGEVNGVHTEFEVVIIISKFDGRWVIKSEHVH	1.24
SEDDEKIERWLHIILRAFETGDERILQELMDPNTRMDINGVEIHGRERVTKELHRIRKELGADHIEVRLTDEKRVNGRLRLHTQLHFHQGNKLIIIESRILFEKYDGKWMIESMSEK	1.05
SEHDEQAEDWTRKHIHWFETGDEELLETLLDPNTRHIVDGQEYHGRENLRRMFHYLLSFMGIKYVRLTNHEVVGDKAHIHMTTNVNGQHTRLILHLIVINGRVHTIEIRVR	0.544
TEDEEAARRHTQEWIHAVRTGDEELLERMIDPEYKLDYNGVDIIGREEYIRIRSEQLQKFKNMRIEVRIHELRHQGDKIDLDVLIIEKWNGVTFRERSHLVILKFDGRWFIRFTSIK	0.801
KEREELLKTAADLMYHIWHTGDFEKLFKNVDPHVKINVGDKTYVGREQMHKIFKELKERLGFDVSSLEHRHLDMQGDFIFNELHVRLHQGDFEIQSWIHVIIYKVNGKWVVHEIKLHWD	1.6
DERHEDIKKFMELVLRLAKTGDEDHFSNMVDPHARLEIGDKHYIGRELVSTLFHEIRLHDMKIHNIISYGDKVKADVRLDIEFDGRRWNINTLLIIHKVNGQWLLESERRH	1.14
SEDKEMADWAIEIWVKSIRTGDEHTQLHLVDPHYREDVGDKEIHGRDELRRHMHEARVDEFRHKIDRMRTQGNKVHLDGIFQMKIRIDGKVDHIEFHSRLVVEKVDGRWLVKSLHIN	1.21
DRHEKIALEMARIILELLYTGDEDTFKHLADPNVKLHLDINGRHFEHHGREEHEKWSRELERHMRITDIKIDDEKVQGDWVHIDSTIVMRIGDKSSIHKMHFIFQIVDGRIKNMEVVIK	1.38
SEEEEEAHRYQEEWKRVHRTGDEDRFRELMDPNVRIHLNINGKNIHLHGRQLAVDFLRHIHLHWRDHEIHTHDIRHFNGVTHVTGRLDGEVNGRRIDTHVEFHHHVFNGRIKSIIIIVH	1.33
SEQHKIAQEMAERILELWQTGDEDTFRYLADPHYRLHIIINGKHHDHHGREEWDKWYRELLDRIDHVRLIWRSVETQGDKLRVDGELVLIIDGKRIVEKVHLEFRVIDGVLRHETIKVR	1.48
DEDRKHIHHMFELWVHFLHTGNEHQLINLVDPHVKLEIGDKHHHGWEQLETFERAFKKEFKHMKIRFELTDIRLINGRMEIDGRDHLHIGDKTIERHLHLVVTKVDGRWQIHSVIVD	1.48
DEDTHNASEALEYLWRVIMTGDEEQVERMADPNVRVVFNGKHLHGREWFLRVLLHIRFDRVRIEHIHTQGEKVRTDSKSDIEFDGRRIEVDIEIYIHKINGRWIVKMFIFR	2.89
SEEEEKLKKILELLRHRILTGDEEFYSRLIDPNARVNIDGKTTHGREEMEHILRELNEDYGVKHHTVRSTEIFDGVNWIRGEFRVNGRSRTVEIIIWVYNGRLKSSEFRFD	1.39
REEEKLWEHIFHLFIEDVLTGDEDRLREMLDPNVRLKAEGHDDHGRESMVKFNEELHKEIRFERIHLRRIHIIDGVSFMDVQIDGTVNGKHRSLESEIRIYIVDGRIRMVELRIR	1.25
DEDEKYVREVFRRFVEAVITGNEEELLELIDPHVRVLINGVDNMGREKWSEWMKRYGFRVHHVRIDDEDLINGVARLDTTEDVEYDGRRDTRHSHIIINKVDGRWHIERLEFR	1.01
SEDEETIKRMVERWEKEFRTGDEKSYIENADPNYRLEVGDKTSIGRESVAKALDDLLRKRGVEIRDIKVHDVKIVGDFIHMDITFRGTQGDKEFDLKVILISKKVNGRWVPEHVHVH	0.789
TDLKEYVERMLELLRKAIETGDETTLTKLVDPHVRLEVNGREFHGWKFWHMIVREIRMRDLELHHVEIQGDKMEVDGTLHLEINGKDDYRKVRLIAEKFDGRWVFTSVHFE	1.72
DHEEKEARRLLELIWKLIQTGDEHFLRELMDPHARISIDGVRLHGMEDIREFLHRYFKHHGYRWHRQRETEKHVVNGVQILFGEHDGEVDGKRDNTRSRLIFLVIDGKLQELEVNNV	0.855
TEESQIALEVLIKTARNKYTGDEDSVRHMADPNVQLHFDGQEIHGMDIIRKMIKHIRIDIEDSRSRDHHVQGDKIHDQTEVVLLIEYNGVHIRRQVRVHIHIWKINGRWILHSEIFE	1.41
SEEEEELKRALKIIIEVMLTGDEKTHHELADPHARLEIHQGNYIEHQHGREIVDKVLRDWIEKLGIDHLHLERVDKQGNKLFVHVHVKVGDKHSKLDIVASKVDGRWVLHEVRIIDE	1.84
DEQHKEVRTFLEIHINMRATGNEEILFHQVDPHVRLIINGRQFHGWEEYEKFAHTSARFFKNVQIRIHRVEVYIQGDKIHVNMHVWYNVNGQTMEVDLHSEMIKVDGQWRLDSEIISIR	1.33

Sequence	protease stability score
SELHKHVKHLAEHFWHLLETGDWEKMTKNADPNDRLDIHIGDKDIHNHGRERSLKTWTELEREMGIDHLTLRHRDLQGDKVIIHTESVFDGRHVKVEIIVVVINGRLKRVEVRFE	0.767
SEDRENIYRQIREVEEALKTGDEELMLHLMDPHVRIDINGRHNHGREEMVRFIREIRISLKHVDIHHVQDDENELIVHVRVNLVIEVDGKRREEEDNALFIFVKIDGRWVFSIIRIQ	1.76
SDLERHISEVFKDIIEMEETGDEEELDKLADPNVRIDIDGVELIGRESLRRWVESVVDQIKGIKKHIVIRHLRVFNGRADSDGELRIHINGKTIVRKVRIHITVVNGRLKEMQFRTE	1.19
SEEKDQLKHVLEDLLRSIITGDEERIVELLDPEVRVDVGEKHSHGRENAAHLVQKLSEELRWRDIHVRDVRLIGDKIDIETRLEGDINGRNLIFQTHRHVIKVNGRWYFRRIIIH	1.38
SEEDKYAKLVIRLLEEMIRTGDEESSIRLADPHARVNINGKDMHGREEFTKWIRQFDVVRDFELKDSDYQGDFIFVDGVLDGEVGDKRMRTKVEIIIFKFNGKWRTKEVWVR	1.38
DDRIRQVVEEWWKAVETNDPDKAKENVDKDVRVEVGDKQFRGSETLEKRIRDEKDHARVVVRMQSVSVHGDTVDVTYNVVVEVNGNPLRFKAQAFFRARNGRMQSIQFSFSKEDKKRVDG	1.78
DEREEWVERIERRLKEAIRTGDEHTLSKNMDPDAKLDINGVDLIGWERVIDFLRELRKELGVDKIHFRVESRRIIGDKAELDTRLHVNGKHHDTHVIIEKFNGVWSIHSLHVR	1.15
DESHEHIRFWAEIYIRIFETGDWDEMSRLLDPHYRLIQGDKHIVGRERALDHIDKEIKELRIHHIHIKDVKTQGDYVRIDGHVNYNVGDKILRFDFHIKLLVVDGKIKHSEERVR	1.28
SHEEHLKRDMLERSFKAWLTGDEESLHELLDPHVRVHFNGRDFHGRELVSTLIREMLRWLGIKHSRFHHIQVFDGKARLELRLEQGEFEVEIEVISLKVDGRWFQHELRFH	1.02
NEEFRDAQMAAHEFINVMETGDEHLLSRRLDPNMRVDINGREFHGWEQWVRIFREIRVKSIRYEEIRVQGDKVHLHTRLHVTIGDYEFTTETTIFIDKINGVWYIKEFHMN	0.253
SEDEKMIEDASELHIDYFLTGDEESMEKLADPSVKLEQGDKDQHGREQHSKWYKELREELGIKHMRVDDVKFRLINGRLTLLIRGTLHVGDKSWDVHFILISEKIDGKWVIRNMIISYS	1.32
TEEREHDHRIFNLFLHWWMTGNEEEIHKYIDPNVRMRLDVNGVEIRDVGREMVMEMLRILYEFLGIDVSRIHSHDTQGDKVVLHGRNHVNGRDIEVHIEWKVINGKLKEVRIEIRER	1.57
REEEETLDRAIREMLRNMRTGDEHRMRELMDPNVRAHINGREIHGREEVVRHLVEWLKRVDHIEFKLEHQVVYGEKIDLDTRVTIRVNGVELRHKTHQRVHKIDGKWVLDELEIS	2.05
DEDEELVKEWFEILMHKVITGDEDTLRNLADPNVRVDINGRDHHGREKFIEVYRRLWEDFGIDYIDSDVEEMKVYDGQAEVTIRLEIRFNGRTLELTTHYDVEKVDGKWRLRRHEVR	1.29
SEREHLADRFVKELTTALQTGDEEKIREMFDPHMKLIINGVTFHGWEELEKIRKRVDHIEHVEVRIEDVRIINGVVEIKGELHVHERVGDKIIDRSNDQTYFVEKVNGRWILKQVELH	1.14
DEEEKLWHEVARLEFELIHTGNEETWNKLADPHTRTDINGKKLHGREDFAKWSLEFLRKVKGMTMELRSTHIQGNKIRLIIRLIVDGREVKLDLEIVIINGKLREVKMEVEDT	2.56
EEWEKAIKFAVKLYKEIMETGDEDMQSHLFDPNVRISVGNKERHGMEEVTKIMTEWRLDDHHVNHVELQGNKVSSDGEINGTFDGRRHRVRIVLIILKVNGVWRIEEVRVI	0.162
SDLDEEARRWLEKHLKNFFTGDWDKFMNNVDPNVRYIVGDKHKIGMESFSKDEKEHRDQYDHLEFRIHHEDTYGEKAVSDMHVTYHINGREIRRRVHLSFLVINGKIKSVRIEFE	0.469
NEEEEESRRAFHLLVELLRTGDEESFTKLADPHMRIIVDGREIHGREEMRRFMEEHWERFPNMKVRIEHFRVQGDKVTIHTVVHIGDKEIEVHIHARKVNGRWIMKELIIVTR	0.552
SEEKKALDILLKTLIHTHQTGDEHTVRELVDPHVRIDFNGQELHGWEDARRFIVEMRLKHVDLRRVHHQGEKVELDGEVDGTYNGQEFHSKLHIVMRKVNGRWVFSQIEIK	1.17
GEEHELTERAIEHFVDIWKTGDEDSLEENIDPHARIDFNGQQLHGREEMYRFMHKVNRQIKGIRLSFKYIDLRIYGDKVIVHNDGVVRVGDKVHDEQTKLEMRKVDGRWLFKSVTVFVL	1.05
DENTRLRREAFRIERKTWKTGDERLLEENADPDAKYDVDGKDLHGWREVVHFLDDFLKRFGFDHFEVKEIRVQGEKIIIDGRVEVNGRVFETRVIFTKFDGQWSVQSLQMR	0.444
DEIEDELRTVYELTVKALTTGNEDLLRNYLDPDTRFIIDGRDLHGMDEINELWREWRIHIHDTKIHSIRTQGNFADVHGRLHGTFIFNGKIEHTTREVRLIFVKVNGRWVINSVVIR	1.63
DEEDQFTEKITRILHEIHRTGDFEKWEKLADPHVKVVIGEFEQHGRETASWVIEWLARYMGIKHIELRDHRVINGVVHLEHEVKVGDKRIDLELRHFVYDGRLKETEIRFR	0.734
DHEKEVAERIMRLLFHQLETGDWRLESKMADPNVRLNFNGVHLHGMETSVKWLEELRIHSFRIRDMRIDIINGVAVADNDTETEITFDGVRIRTRTHLHIFVSKFDGRWHVSEIEIRIR	0.094
